US20250059285A1 (ARGENX, published 2025)

Legend:
[1] = molecular target: T1, cynomolgus Gal10-His (WGS isoform) (cynomolgus); assay: SPR Biacore 3000, hFab on cynomolgus Gal10-His (WGS) captured by anti-His CM5
T1 construct: also called cynomolgus antigen
Procedure, shortened: (§1)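 Fab binding measured by SPR on Biacore 3000, with His-tagged human or cynomolgus (WGS isoform) Gal10 captured on an anti-His antibody-coated CM5 chip. Clones applied either at two concentrations (cynomolgus only) or as a serial dilution.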

[2] = molecular target: T2, human Gal10-His (human, UniProt Q05315 2-142, limits assumed); assay: SPR, overview table of lead Fab candidates
T2 construct: also called hGal10-His; human Gal10-His tagged; not shown: His tag
T2 sequence: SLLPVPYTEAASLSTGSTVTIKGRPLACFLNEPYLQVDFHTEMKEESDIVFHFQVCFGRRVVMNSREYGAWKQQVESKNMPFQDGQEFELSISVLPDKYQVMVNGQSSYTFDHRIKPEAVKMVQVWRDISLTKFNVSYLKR

[3] = molecular target: T2, human Gal10-His; assay: summary of periplasmic extract screening (BLI or SPR)
[4] = molecular target: T2, human Gal10-His; assay: SPR Biacore 3000, purified hFab (2 conc.) on Gal10-His captured by anti-His CM5
[5] = molecular target: T2, human Gal10-His; assay: SPR against T0 reference; sample 4 weeks at 5 C, then nebulized
Procedure: (§2) The functional active concentration of the candidates was then assessed by SPR on a Biacore 3000 instrument (FIG. 4). All samples were evaluated with methods meeting the standard qualification criteria. Aliquots were tested at predefined test concentrations against titration curves from reference samples (T0, −80° C. storage) and in the presence of quality control (QC) samples covering a range of 70-130% relative activity (% RA) towards the reference material.
(§3) comparison/reference ⁽¹⁾ samples correspond to aliquots kept at +37° C. for 4 weeks ⁽²⁾ samples correspond to aliquots kept at +5° C. for 4 weeks prior to nebulization. In brief, samples were nebulized with an Aerogen Solo active vibrating mesh nebulizer that converted a drug solution into an inhalable aerosol. Three different devices for each time-point were used per clone and results are reported by the device (nebulizer) serial number. In case of device fouling, indicated by longer nebulization times […]

[6] = molecular target: T1, cynomolgus Gal10-His (WGS isoform); assay: SPR Biacore 3000, hFab on captured cynomolgus Gal10-His (WGS); column head prints (M), the text gives nM
Procedure, shortened: as §1

[7] = molecular target: T2, human Gal10-His; assay: SPR slope against calibrators on captured Gal10-His; T0 sample
Procedure: The binding properties of the seven selected clones following two weeks of temperature stress was analysed using an optimized capture method on a Biacore 3000 instrument. The binding properties of the stressed samples were determined, compared to the calibration point, and expressed as a percentage of Relative Activity (% RA).
Briefly, a capture method was set-up on a Biacore 3000 instrument. For this purpose, a CM5 chip was coated with a monoclonal anti-His antibody (4000 RU), then a fixed concentration of the human Gal10-His (25 μg/mL) was captured on the anti-His chip before receiving duplicate injections of the calibrators, QC samples and temperature stressed samples of each clone. The slope of each injected sample was then calculated using the BIA evaluation software. Concentrations of the QC samples and temperature stressed samples were back-calculated by interpolating the obtained slopes of these samples to the calibrator curve. Obtained values were within +/−20% of the nominal concentration of the tested samples and are expressed as average relative accuracy (avg % RA) (Table 13).

[8] = molecular target: T2, human Gal10-His; assay: SPR Biacore 3000, purified hFab on captured Gal10-His
Procedure: The binding properties of the selected Fab clones to human Gal10 were analyzed via a capture method established on a Biacore 3000 instrument. Two concentrations of the selected Fab clones were tested on human Gal10-His immobilized on a CM5 chip coated with a monoclonal anti-His. As controls, the clone g7B07 and g7B07_N53A were injected at the beginning and the end of the run. Briefly, a CM5 chip was coated with a monoclonal anti-His antibody (4000 RU), then a fixed concentration of the human Gal10-His (25 μg/mL) was captured on the anti-His chip before receiving two concentrations of the clones in the human Fab backbone.

[9] = molecular target: T2, human Gal10-His; assay: SPR against T0 reference; sample 4 weeks at 37 C
Procedure: as §2, §3

B1: g23H09 (Fab) (Fab, V domains shown)
VH: EVQLLESGGGLVQPGGSLRLSCAASGFTFRSYDMSWVRQAPGKGLEWVSAIAQFQHWTYYADSVKGRFTISRDNSKNTLYLQMNSLRAEDTAVYYCATTHGIGTLGFGSWGQGTLVTVSS
VL: SYELTQPLSVSVALGQTARITCDGNNIGSKSAQWYQQKPGQAPVLVIYADEYRPEGIPERFSGSNSGNTATLTISRAQAGDEADYYCQVWDGSAAVFGGGTQLTVL
notes: same VH/VL
[1]
  Amplitude R0: 589 RU
  koff: 0.0095 s⁻¹
  kon: 950000 M⁻¹ s⁻¹
[2]
  Kd: 5.3 nM
  koff: 0.0031 s⁻¹
[3]
  kd, fold compared to g7B07 (BLI or SPR): 2.5 fold
[4]
  Kd: 3.9 nM
  kd-fold drop vs g7B07: 1.8 fold
  koff: 0.0025 s⁻¹
  kon: 650000 M⁻¹ s⁻¹
[5]
  % relative activity by SPR: 119%
[6]
  Kd: 9.9 nM
[7]
  % Relative Activity (RA) on Biacore: 98%
[8]
  fold better affinity than g7B07: 2.8 fold
[9]
  % relative activity by SPR: 93%
